This is an account of results in article PMC3185033, “Exportin 4 Interacts with Sox9 through the HMG Box and Inhibits the DNA Binding of Sox9” (PLoS ONE, 2011).

The target in the assay is T1, purified recombinant FLAG-Exp4 protein (human, UniProt Q9C0E2 1-1151).
T1 construct: human exportin 4, full-length cDNA assembled from three clones; also called recombinant Exp4; source: baculovirus system (pFASTBAC), purified recombinant
In words: pull-down; GST-fused HMG box fragments incubated with purified recombinant FLAG-Exp4 and glutathione Sepharose 2 hr at 4°C; Western blot with anti-Exp4; no RanGTP. To be noted: both partners purified. For orientation: Immunoblotting shows a protein as a band on a membrane.

T1 sequence (Q9C0E2 whole entry): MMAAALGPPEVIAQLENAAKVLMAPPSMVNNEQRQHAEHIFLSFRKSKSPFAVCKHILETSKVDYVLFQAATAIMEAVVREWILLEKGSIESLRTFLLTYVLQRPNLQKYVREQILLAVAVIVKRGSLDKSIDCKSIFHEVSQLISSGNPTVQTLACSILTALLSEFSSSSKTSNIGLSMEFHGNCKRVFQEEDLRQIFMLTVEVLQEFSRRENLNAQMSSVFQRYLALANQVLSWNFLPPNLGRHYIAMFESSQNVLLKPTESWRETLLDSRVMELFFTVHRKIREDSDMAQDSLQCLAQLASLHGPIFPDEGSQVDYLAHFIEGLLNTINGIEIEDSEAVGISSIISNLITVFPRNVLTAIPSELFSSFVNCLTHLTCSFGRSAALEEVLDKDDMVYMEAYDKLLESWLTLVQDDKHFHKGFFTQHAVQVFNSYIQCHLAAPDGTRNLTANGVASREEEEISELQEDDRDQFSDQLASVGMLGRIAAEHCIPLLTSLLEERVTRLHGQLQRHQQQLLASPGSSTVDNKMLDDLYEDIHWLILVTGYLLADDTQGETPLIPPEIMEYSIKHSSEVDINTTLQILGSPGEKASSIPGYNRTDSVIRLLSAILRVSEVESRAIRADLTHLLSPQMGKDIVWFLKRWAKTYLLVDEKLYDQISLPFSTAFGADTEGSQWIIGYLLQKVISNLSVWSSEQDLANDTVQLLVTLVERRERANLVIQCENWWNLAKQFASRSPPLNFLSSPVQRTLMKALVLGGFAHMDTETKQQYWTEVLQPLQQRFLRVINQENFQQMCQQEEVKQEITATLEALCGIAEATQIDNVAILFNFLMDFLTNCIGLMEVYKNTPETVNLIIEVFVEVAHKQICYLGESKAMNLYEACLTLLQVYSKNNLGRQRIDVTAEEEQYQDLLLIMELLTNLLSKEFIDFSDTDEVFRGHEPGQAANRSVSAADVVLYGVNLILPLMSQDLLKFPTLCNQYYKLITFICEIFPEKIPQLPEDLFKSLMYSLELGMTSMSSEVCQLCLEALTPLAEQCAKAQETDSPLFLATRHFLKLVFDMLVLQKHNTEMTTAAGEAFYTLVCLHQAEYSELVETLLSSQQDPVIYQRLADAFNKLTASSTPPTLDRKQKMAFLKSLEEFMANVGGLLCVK

B1: GST-tagged HMG box fragment of Sox2 (33–123 a.a.) (domain or fragment)
chain: not shown
notes: source: E. coli, prepared on glutathione-Sepharose
Regarding B1, the binding result was “binds”.

B2: GST-fused Sox9 region #2 (95–186 a.a.), HMG box domain (domain or fragment, mouse, UniProt Q04887 95-186, looked up)
chain: VNGSSKNKPHVKRPMNAFMVWAQAARRKLADQYPHLHNAELSKTLGKLWRLLNESEKRPFVEEAERLRVQHKKDHPDYKYQPRRRKSVKNGQ
notes: cloned in pGEX-6P-1; also called GST-tagged HMG box fragment of Sox9
For the molecule B2, the binding result is “binds”.
